Data taken from the supplement of paper PMC10567573.

B1: HESX1 (parent)
chain: HVPNPPSGISFPSVVDHPMPEERA
B2: WEE1 (parent)
chain: INPFTPDSLLLHSSGQCRRRKRTY

Variants of: B1
Assay: protein stability index of a GFP-peptide fusion (GPS, HEK-293T) (PSI 1-6); higher = more stable
Settings: c terminus: a fixed tail appended
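Also: lentivirally expressed fusions sorted by FACS into six bins by GFP to DsRed ratio, PSI derived from sequencing read proportions per bin multiplied by bin number.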

Row | Variant | protein stability index
1 | HVPNPPSGISFPSVVDHPMPLERA [E21L] | 1.97
2 | HVPNPPSGISFPSVVDHPMPMERA [E21M] | 1.86
3 | HVPNPPSGISFPSVVDHPMPNERA [E21N] | 2.37
4 | HVPNPPSGISFPSVVDHPMPPERA [E21P] | 2.06
5 | HVPNPPSGISFPSVVDHPMPQERA [E21Q] | 2.33
6 | HVPNPPSGISFPSVVDHPMPRERA [E21R] | 2.52
7 | HVPNPPSGISFPSVVDHPMPSERA [E21S] | 2.56
8 | HVPNPPSGISFPSVVDHPMPTERA [E21T] | 2.52
9 | HVPNPPSGISFPSVVDHPMPVERA [E21V] | 2.48
10 | HVPNPPSGISFPSVVDHPMPWERA [E21W] | 2
11 | HVPNPPSGISFPSVVDHPMPYERA [E21Y] | 2.43
12 | HVPNPPSGISFPSVVDHPMPEARA [E22A] | 2.72
13 | HVPNPPSGISFPSVVDHPMPECRA [E22C] | 2.15
14 | HVPNPPSGISFPSVVDHPMPEDRA [E22D] | 2.76
15 | HVPNPPSGISFPSVVDHPMPEFRA [E22F] | 1.9
16 | HVPNPPSGISFPSVVDHPMPEGRA [E22G] | 2.08
17 | HVPNPPSGISFPSVVDHPMPEHRA [E22H] | 2.29
18 | HVPNPPSGISFPSVVDHPMPEIRA [E22I] | 2.75
19 | HVPNPPSGISFPSVVDHPMPEKRA [E22K] | 1.83
20 | HVPNPPSGISFPSVVDHPMPELRA [E22L] | 1.94
21 | HVPNPPSGISFPSVVDHPMPEMRA [E22M] | 2.15
22 | HVPNPPSGISFPSVVDHPMPENRA [E22N] | 2.02
23 | HVPNPPSGISFPSVVDHPMPEPRA [E22P] | 2.17

Row | Variant | protein stability index
24 | HVPNPPSGISFPSVVDHPMPEQRA [E22Q] | 2.77
25 | HVPNPPSGISFPSVVDHPMPERRA [E22R] | 2.26
26 | HVPNPPSGISFPSVVDHPMPESRA [E22S] | 2.3
27 | HVPNPPSGISFPSVVDHPMPETRA [E22T] | 2.33
28 | HVPNPPSGISFPSVVDHPMPEVRA [E22V] | 2.16
29 | HVPNPPSGISFPSVVDHPMPEWRA [E22W] | 2.37
30 | HVPNPPSGISFPSVVDHPMPEYRA [E22Y] | 2.68
31 | HVPNPPSGISFPSVVDHPMPEEAA [R23A] | 2.53
32 | HVPNPPSGISFPSVVDHPMPEECA [R23C] | 2.56
33 | HVPNPPSGISFPSVVDHPMPEEDA [R23D] | 3
34 | HVPNPPSGISFPSVVDHPMPEEEA [R23E] | 2.76
35 | HVPNPPSGISFPSVVDHPMPEEFA [R23F] | 2.11
36 | HVPNPPSGISFPSVVDHPMPEEGA [R23G] | 3.19
37 | HVPNPPSGISFPSVVDHPMPEEHA [R23H] | 2.99
38 | HVPNPPSGISFPSVVDHPMPEEIA [R23I] | 2.58
39 | HVPNPPSGISFPSVVDHPMPEEKA [R23K] | 2.77
40 | HVPNPPSGISFPSVVDHPMPEELA [R23L] | 2.1
41 | HVPNPPSGISFPSVVDHPMPEEMA [R23M] | 2.38
42 | HVPNPPSGISFPSVVDHPMPEENA [R23N] | 2.73
43 | HVPNPPSGISFPSVVDHPMPEEPA [R23P] | 2.76
44 | HVPNPPSGISFPSVVDHPMPEEQA [R23Q] | 2.21
45 | HVPNPPSGISFPSVVDHPMPEESA [R23S] | 2.36
46 | HVPNPPSGISFPSVVDHPMPEETA [R23T] | 2.6

Row | Variant | protein stability index
47 | HVPNPPSGISFPSVVDHPMPEEVA [R23V] | 2.49
48 | HVPNPPSGISFPSVVDHPMPEEWA [R23W] | 2.37
49 | HVPNPPSGISFPSVVDHPMPEEYA [R23Y] | 2.34
50 | HVPNPPSGISFPSVVDHPMPEERC [A24C] | 2.09
51 | HVPNPPSGISFPSVVDHPMPEERD [A24D] | 2.77
52 | HVPNPPSGISFPSVVDHPMPEERE [A24E] | 2.95
53 | HVPNPPSGISFPSVVDHPMPEERF [A24F] | 2.3
54 | HVPNPPSGISFPSVVDHPMPEERG [A24G] | 2.33
55 | HVPNPPSGISFPSVVDHPMPEERH [A24H] | 2.65
56 | HVPNPPSGISFPSVVDHPMPEERI [A24I] | 2.36
57 | HVPNPPSGISFPSVVDHPMPEERK [A24K] | 2.63
58 | HVPNPPSGISFPSVVDHPMPEERL [A24L] | 2.32
59 | HVPNPPSGISFPSVVDHPMPEERM [A24M] | 2.77
60 | HVPNPPSGISFPSVVDHPMPEERN [A24N] | 2.74
61 | HVPNPPSGISFPSVVDHPMPEERP [A24P] | 2.98
62 | HVPNPPSGISFPSVVDHPMPEERQ [A24Q] | 2.38
63 | HVPNPPSGISFPSVVDHPMPEERR [A24R] | 2.87
64 | HVPNPPSGISFPSVVDHPMPEERS [A24S] | 2.5
65 | HVPNPPSGISFPSVVDHPMPEERT [A24T] | 2.87
66 | HVPNPPSGISFPSVVDHPMPEERV [A24V] | 2.98
67 | HVPNPPSGISFPSVVDHPMPEERW [A24W] | 1.91
68 | HVPNPPSGISFPSVVDHPMPEERY [A24Y] | 2.13

Variants of: B2
Assay: as above
Settings: c terminus: a fixed tail appended

Row | Variant | protein stability index
69 | ANPFTPDSLLLHSSGQCRRRKRTY [I1A] | 4.07
70 | CNPFTPDSLLLHSSGQCRRRKRTY [I1C] | 3.17
71 | DNPFTPDSLLLHSSGQCRRRKRTY [I1D] | 4.03
72 | ENPFTPDSLLLHSSGQCRRRKRTY [I1E] | 3.6
73 | FNPFTPDSLLLHSSGQCRRRKRTY [I1F] | 2.73
74 | GNPFTPDSLLLHSSGQCRRRKRTY [I1G] | 3.81
75 | HNPFTPDSLLLHSSGQCRRRKRTY [I1H] | 3.89
76 | KNPFTPDSLLLHSSGQCRRRKRTY [I1K] | 3.62
77 | LNPFTPDSLLLHSSGQCRRRKRTY [I1L] | 3.19
78 | MNPFTPDSLLLHSSGQCRRRKRTY [I1M] | 3.33
79 | NNPFTPDSLLLHSSGQCRRRKRTY [I1N] | 4.17
80 | PNPFTPDSLLLHSSGQCRRRKRTY [I1P] | 4.36
81 | QNPFTPDSLLLHSSGQCRRRKRTY [I1Q] | 3.95
82 | RNPFTPDSLLLHSSGQCRRRKRTY [I1R] | 4.02
83 | SNPFTPDSLLLHSSGQCRRRKRTY [I1S] | 3.52
84 | TNPFTPDSLLLHSSGQCRRRKRTY [I1T] | 3.87
85 | VNPFTPDSLLLHSSGQCRRRKRTY [I1V] | 3.55
86 | WNPFTPDSLLLHSSGQCRRRKRTY [I1W] | 3.83
87 | YNPFTPDSLLLHSSGQCRRRKRTY [I1Y] | 3.05
88 | IAPFTPDSLLLHSSGQCRRRKRTY [N2A] | 3.09
89 | ICPFTPDSLLLHSSGQCRRRKRTY [N2C] | 3.69
90 | IDPFTPDSLLLHSSGQCRRRKRTY [N2D] | 4.16
91 | IEPFTPDSLLLHSSGQCRRRKRTY [N2E] | 3.93
92 | IFPFTPDSLLLHSSGQCRRRKRTY [N2F] | 2.35
93 | IGPFTPDSLLLHSSGQCRRRKRTY [N2G] | 3.48
94 | IHPFTPDSLLLHSSGQCRRRKRTY [N2H] | 3.19
